{"source": "paper PMC12840758", "about": "“The Cold Shock Protein CspB from Mycobacterium tuberculosis Binds to MTS0997 sRNA and MTS1338 sRNA as a Dimer” (International Journal of Molecular Sciences, 2026)", "proteins": {"B1": {"name": "Cold shock protein CspB from Mycobacterium tuberculosis (natural protein)", "chain": "MPTGKVKWYDPDKGFGFLSQEGGEDVYVRSSALPTGVEALKAGQRVEFGIASGRRGPQALSLRLIEPPPSLSRPRREPAAEHKHSPDELHGMVEDMITLLESTVQPELRKGRYPDRKTARRVAEVVRAVAREFES", "notes": "Removal of the C-terminal His6 tag is not mentioned; also called MtbCspB; M. tuberculosis CspB"}}, "molecular_target": "the molecule itself", "assay": "SEC; Superdex 75 Increase 10/300 GL, 200 mM NaCl, 50 mM Tris-HCl pH 8.0; 1 mg/mL, 100 uL injected, 0.5 mL/min; calibrated with monomeric globular proteins of 45.8, 24.8, 15.4 and 7.3 kDa"}
{"protein": "B1", "values": [{"measurement": "stoichiometry N", "result": 2}]}
